Data set [1] has as its target T1, EG5 (Pecoramyces ruminantium, UniProt A0A1B1JH60).
T1 construct: whole CDS (nt 1-1251 of transcript; protein length 417) cloned; codon-optimised synthetic gene in pET28a(+) NdeI/XhoI, E. coli, purified
The data set is described as follows: endoglucanase assay, CellG3 kit, 2-chloro-4-nitrophenol release. It counts as biochemical. Particulars: printed BDL (below detection limit 500 nM); Lineweaver-Burk extrapolation 0.000003999 mM. From the text:
endoglucanase assay, CellG3 kit, 2-chloro-4-nitrophenol release on EG5

Substrate in data set [2]: O=[N+]([O-])c1ccc(O[C@@H]2O[C@H](CO)[C@@H](O[C@@H]3O[C@H](CO)[C@@H](O)[C@H](O)[C@H]3O)[C@H](O)[C@H]2O)cc1
The data set is described as follows: cellobiohydrolase assay, p-nitrophenol release. Conditions: 0.1 M sodium acetate buffer, 15 min; pH and temperature of kinetics not stated. It counts as biochemical, Pecoramyces ruminantium.

Substrate in data set [3]: O=[N+]([O-])c1ccc(O[C@@H]2O[C@H](CO)[C@@H](O[C@@H]3O[C@H](CO)[C@@H](O[C@@H]4O[C@@H]5COC(c6ccccc6)O[C@H]5[C@H](O)[C@H]4O)[C@H](O)[C@H]3O)[C@H](O)[C@H]2O)c(Cl)c1
The data set is described as follows: endoglucanase assay, CellG3 kit, 2-chloro-4-nitrophenol release. It counts as biochemical, Pecoramyces ruminantium. Particulars: pH and temperature of kinetics not stated. From the text: endoglucanase assay, CellG3 kit, 2-chloro-4-nitrophenol release on Cel48

Substrate in data set [4]: O=[N+]([O-])c1ccc(O[C@@H]2O[C@H](CO)[C@@H](O)[C@H](O)[C@H]2O)cc1
Description: purified protein. Conditions: 0.1 M sodium acetate buffer, 15 min; pH and temperature of kinetics not stated.

Substrate in data set [5]: O=[N+]([O-])c1ccc(O[C@@H]2OC[C@@H](O)[C@H](O)[C@H]2O)cc1
Description: beta-xylosidase assay, p-nitrophenol release. The data set is classed as biochemical, Pecoramyces ruminantium. Conditions: 0.1 M sodium acetate buffer, 15 min; pH and temperature of kinetics not stated.

For the molecule `O=[N+]([O-])c1ccc(O[C@@H]2O[C@H](CO)[C@@H](O[C@@H]3O[C@H](CO)[C@@H](O[C@@H]4O[C@@H]5COC(c6ccccc6)O[C@H]5[C@H](O)[C@H]4O)[C@H](O)[C@H]3O)[C@H](O)[C@H]2O)c(Cl)c1` (some centres unmarked) [CellG3], in data set [1], the Km was under 0.5 µM.

B1: Cel48 (Pecoramyces ruminantium) (protein)
chain: MPSIRTALTLLGASAVIAAPTKRANDAYAQRVIDTYNAVTGNGSYRSDYFSPENVPYHSVETMMVEAPDQGHESVSETYSFWVWLEAINGKMTGNYDGVNTAWSYLEKHIIPDSKNQPGMSRYNSSSPATYAPEDDDITNYPSKLIFQDGLVGQDPIAAELQQAYGTWDIYAMHWIIDGDNWYGYGQQGDGTTKPSFINTFQRGPSESAWKTVPHPCWEEFKWGGRNGFLDLFTVDNSYAKQWRYTAAPDADARAIQAAYFAYIWAKEDGQNLSSLAGKAAKLGDYLRYAHYDKYFKKIGNCIGYQQCQAGSGKNSAHYLISWYFSWGGGLQGDWSWRIGSSHTHTGYQNPLAAWVLSTESAFKPKGSTAVKDWATSLDRQLELFRWLQAAEGCIAGGATNSWQGHYAQPPSDITSFYGMYYDWQPVYHDPPSNNWTGMQGWGMERVCSLYFLSGNEKAGKVCQDWAKWVKNNVRVNGSEVVHATNFSWSGNPDEWKPANFNKSGLNASLHGTVSTEGIDIGSLASIIKGLMWVSMKDGDQEGIDLAVQVMDAIEQYRDDHGYGVEEAREDYAKFNEEVYIPSGWTGKNAQGANIRNGVKFIDIRPKYKQDPDWPQIENFLNGGEAPRFTYHRFWAQTEIAVANGLISIYGLSDGSGVVPTKPGSCAAAIKAQGYKCCSANCEVVYTDADGDWGVENDEWCGCGGGEPECPAAITNQGYPCCSTCGTVYYTDGDGDWGVENGDWCGMPTDC
notes: whole CDS (nt 87-2342 of transcript; protein length 751) cloned; codon-optimised synthetic gene in pET28a(+) NdeI/XhoI, E. coli, purified
On to B1, for which the Michaelis-Menten constant (Km) in data set [2] amounted to 8980 µM; in data set [3], 30100 µM. Also, the figures for the Vmax in data set [2] and in data set [3] were 0.357 µmol/min/mg and 0.048 µmol/min/mg, respectively.

B2: Cel6A (Pecoramyces ruminantium) (protein)
chain: PKSSGGSTTTPVNPGDVDATPGDQLTLSGNPFSGVEFYINPYYVAEVDGAIAQMTDSSLKAKAEKMKTYSNAIWLDTIKNMNSWLESNLKGALAQQTGSKKVLTVFVVYDLPGRDCHALASNGELLANSSDAQRYKTEYIDVIEKHLKTYKSQPVALIVEPDSLANLVTNLESTPACRDSESYYLDGHAYLIKKLGVLPHVAMYLDIGHAFWLGWDDNREKAGKVYAKVIQSGSPGKVRGFTDNVSNYTPWEDPTLSRGPDTEWNPCPDEKRYLEAMHKDFKAAGISSVYFVSDTSRNGHKTDRKHPGEWCNQTGVGIGARPQASPISGMDYLDAFYWIKPLGESDGTSDESAVRFDGYCGHETAMKPAPEAGQWFQKHFEQGLENANPPL
notes: whole CDS (nt 2-1177 of transcript; protein length 391) cloned; codon-optimised synthetic gene in pET28a(+) NdeI/XhoI, E. coli, purified
For B2, in data set [2], the Km is 228 µM and the Vmax amounted to 3.27 µmol/min/mg.

B3: EG5 (Pecoramyces ruminantium) (protein)
chain: TLLGLAIIGTKAMRNISSKELVKELTIGWSLGNTLDATCFETLNYAKDQTASETCWGNVKTTQELYYKLNDLGFNTFRIPTTWSGHFGDGPDYKISEAWMKRVHEIVDYALNADGYAILNIHHETWNHAFQKNLESAKKILVAIWKQIAAEFADYDEHLIFEGMNEPRKVGDAAEWNGGDYEGWNFVNEMNDLFVKTIRATGGNNALRHLMIPTYAACVNDGAINNFRFPSGDDKVIVSLHSYSPYNFALNNGAGAISNFNDGSEIDWVMNTINSSFISKGIPVIIGEFGAMNRNNEADREKWAEYYIKKATSLGIPCVIWDNGYFEGEGERFGLIDRKSLNVVYPRLVNGLMKGLGDKKPKTTKVRTTTTTTIQVQPTNNNDCFSTKLGYDCCNGCEVFYTDNDGKWGVENGNWCG
For the molecule B3, in data set [4], the Michaelis-Menten constant (Km) is 84000 µM and the Vmax was found to be 0.45 µmol/min/mg.

B4: XYL11 (Pecoramyces ruminantium) (protein)
chain: GSGTSGTADFPYAKVYIGNQQNQPSYQPTTTRNNSQPTSPATGGSSGEICSASGHSGESTKVTSNKVGSINGIGYELWADSGNNSATFYSDGSFSCTFQNAKDYLCRSGLSFDSTKTHSQIGHLYADFKLVKQGISNVDYSYVGIYGWTRSPLVEFYIVDNWLSQYRPGDWVGNKKHGDFTIDGAQYTVYENTRTGPSIDGNTQFKQYFSIRKTARDCGTIDITAHFQQWEKLGMTMGKMHEAKVLGEAGSNGSGTSGTADFPYAKVYTGS
For the molecule B4, in data set [4], the Km amounted to 216 µM and the Vmax came out at 0.28 µmol/min/mg.

B5: BGL1 (Pecoramyces ruminantium) (protein)
chain: IVKPAADAAADVASDAEVVASDEENPLDNGEDSADDTPKGKLPSDFKWGAATAAYQVEGAWNEEGRGESVWDHFTHLYPKNVESGDRSNKDSTNGNVACDSYHKFDEDIKMMKIMNANHYRFSISWSRLFPDGQAKKVDGEWNVNEAGAQYYDMVIDTLLDNDIIPLATLYHWDLPYALHEKYGGWLDYHSQFDFAKYAEFCFERYGDRVKGWITINEPWVNCVAGYKNGPGKAPYRCTGEAPRKLANDTTGLDLEGGCSYEIGPSQYTKDSEVLPANRPPQKLEDVWCSHNILLGHAQAVKVYREKFQKEQKGLIGITIDGEAQIPWEEPGMSEEEYENNKKYANLAAEFRIGWYSDPVMFGDYPESVKQRNGKDMPVFTDEEKKLLKGSSSDFLGWNTYTSHWAAQVKNEDGSYVEPPTDEEASYDNSKRDMWDDNCKGRGDGWTCIPPTLGSQAGSSWNTKYGPTIRVGLNWFSKRYEGIIKNGIIITENGCAQPNYKVSRANDQVTLDYWKSIGKEEFADTYDEDIIEDESDLEGTLIHDTYRIDWYKQYLENLRLAYVEDGVDVRGYMAWSLVDNFEWENGYETRFGMTYIDFYNDKDLKRVPKDSLTFLGQWYLDNVEQE
Take B5: in data set [4], the Km amounted to 164 µM and the Vmax was 5.41 µmol/min/mg.

B6: BGL3 (Pecoramyces ruminantium) (protein)
chain: TWEEADAKAREWCSDLTNEEKIALITGRENMTGVCVGSIDPIERKGFKGLCLQDGPAGVRFAKGTATSWQASINTAATFDRTLLRKVGEAQGNEFYQRGINVALAPSMGIQRAPAAGRIFESYGEDPFYVGQCGLEVLKGIQSQGVIANAKHYIANDQENNRGASTSNVPEQALWEVYMEPFYRTVVEGEAGTVMASYNAINGTYSTQNKRLLTDYLKGKLGFKGFVMSDWWAIFDVEKSFGNGTDMNMPGGKYWGPDYVGDSFWGEHIQECIDNGVFPQERLDDAVLRIIRTLYKLDQMDDYPEVNLYVDTNTKENAALNRKVGADSNVLLKNADNILPIKKSKKVKKIAVIGKDSMPPTLCEDMKCANGTLPLGWGSGTTDFKYVVDPLSAITKRAKKSKISVVSYGEDDAKKAAKVAKKADVAIVFVQADSGEEYITVEGNAGDRLNLDLWHGGNELIEAVAAVNKNTIVVIHAPGPVNVPFLDKVKGIIFAGLPGQETGNAITDVLFGDVNPSGHLPYTWAPREDYPTDVKYEPEYPDGGEKMTVYDYNEGLFVGYRWFDKKEIEPTFAFGYGLSYTTFEFSDLEATMEDDGLYVSLTVTNTGKVAGAAVPMIFLSFPESVKDYPIRLFKGFDKVMLKAGESKETTIFIDAHGLSYFDVEKMEYVRPKDGEFTVYAGSNARDLPLNVKVLANGDEI
notes: about residues 22-721; pET28a(+) NdeI/XhoI, codon-optimised, E. coli, purified
Consider B6, for which, in data set [5], the Km is 50600 µM and the Vmax was 0.068 µmol/min/mg. In data set [4], the Km was found to be 275 µM and the Vmax turned out to be 1.55 µmol/min/mg.

These data come from paper PMC4933900, “Defined enzyme cocktail from the anaerobic fungus Orpinomyces sp. strain C1A effectively releases sugars from pretreated corn stover and switchgrass” (Scientific Reports, 2016).
